In patent publication US20220162308A1 (Novartis, published 2022):
Positions count from the first letter of the chain named.

Columns and labels:
Human CD48 on cells = molecular target: T1, Human CD48 on cells (human, UniProt P09326 27-220); assay: cell-based or functional assay
T1 sequence: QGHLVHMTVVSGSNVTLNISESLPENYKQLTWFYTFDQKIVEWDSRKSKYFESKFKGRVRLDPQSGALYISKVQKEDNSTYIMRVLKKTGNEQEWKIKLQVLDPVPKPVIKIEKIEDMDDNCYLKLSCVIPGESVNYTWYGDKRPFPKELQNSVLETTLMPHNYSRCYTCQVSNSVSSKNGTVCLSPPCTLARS

2249 = molecular target: T2, 2249 (Homo sapiens, UniProt P09326); assay: ELISA: 1:10 diluted HEK293T supernatant of the CD48-mouse IgG construct; antibody at 25, 250 and 500 ng/mL; detection with goat anti-mouse IgG (H+L) HRP; Mean OD450-570
T2 chain: T1 sequence with D44A, S45A, R46G
Experimental: (§1) Applying the 3D structure models of the CD48 protein, three exposed loops of the protein were selected and changed by site directed mutagenesis utilizing PCR. Antibody binding epitopes were determined by ELISA. […] The template construct, hCD48EC:mouse-Ig originates from the expression plasmid generated to express the human CD48-mouse IgG1 fusion protein for immunization amplified from the commercial vector “Trueclone, CD48 (untagged)-Human CD48 molecule” (Origene, NM_001778.2). Primer for the site directed mutagenesis were synthesized by Microsynth (Switzerland).

Construct #2248 = molecular target: T3, Construct #2248 (human; mouse, UniProt P09326 27-220, limits assumed); assay: as above
T3 construct: also called hCD48EC:mouse-Ig with ENYKQ modified into GSSKQ
T3 chain: T1 sequence with E25G, N26S, Y27S
Experimental: as §1

Construct #2250 = molecular target: T4, Construct #2250 (human; mouse, UniProt P09326 27-220, limits assumed); assay: as above
T4 construct: also called hCD48EC:mouse-Ig with KKTGNE modified into KKDASG
T4 chain: T1 sequence with T89D, G90A, N91S, E92G
Experimental: as §1

[1] = molecular target: T5, Non-mutated CD48-mouse IgG fusion construct (human; mouse, UniProt P09326 27-220, limits assumed); assay: as above
T5 construct: Used as HEK293T culture supernatant in the ELISA; also called hCD48EC:mouse-Ig; human CD48-mouse IgG1 fusion protein
T5 sequence: T1 sequence
Experimental: as §1

B1: humanized CD48A (antibody, human IgG1, kappa)
heavy: not shown
light: EIVLTQSPDFQSVTPKEKVTITCRASQSIGSNIHWYQQKPDQSPKLLIKYTSESISGVPSRFSGSGSGTDFTLTINSLEAEDAATYYCQQSNSWPLTFGGGTKVEIKRTVAAPSVFIFPPSDEQLKSGTASVVCLLNNFYPREAKVQWKVDNALQSGNSQESVTEQDSKDSTYSLSSTLTLSKADYEKHKVYACEVTHQGLSSPVTKSFNRGEC
notes: also called humanized MEM102 antibody; anti-CD48A
Human CD48 on cells
  IC50 (nM), cell proliferation/survival (CellTiter-Glo), KMS-21-BM, with anti-human Fc-VC-MMAE: 0.016 nM
  IC50 (nM), cell proliferation/survival (CellTiter-Glo), KMS-27, with anti-human Fc-VC-MMAE: 0.001 nM
  IC50 (nM), cell proliferation/survival (CellTiter-Glo), NCI-H929, with anti-human Fc-VC-MMAE: 0.007 nM
  Span (Amax), KMS-21-BM, with anti-human Fc-VC-MMAE: 92
  Span (Amax), KMS-27, with anti-human Fc-VC-MMAE: 93.4
  Span (Amax), NCI-H929, with anti-human Fc-VC-MMAE: 100
2249
  EC50 (read off the curve): ~0.03 µg/mL
Construct #2248
  binding result: no binding (tested: 500 ng/mL)
Construct #2250
  EC50 (read off the curve): ~0.02 µg/mL
[1]
  EC50 (read off the curve): ~0.02 µg/mL
